# From patent publication US10357539B2, “Use of peptides that block metadherin-SND1 interaction as treatment for cancer” (THE TRUSTEES OF PRINCETON UNIVERSITY, priority 2014, dated 2019)
# Residue numbers refer to the chain shown, from its start. Numbers in names are those of the source. Entries after “also recorded” stand apart in the source; their conditions may differ.
# T1: SND1 (Homo sapiens, UniProt Q7KZF4)
# T1 construct: 15 μg of His-SND1 (16-339) was added to the resin; made in house; host or cells: E. coli DH5α
# T1 sequence (Q7KZF4 16-339): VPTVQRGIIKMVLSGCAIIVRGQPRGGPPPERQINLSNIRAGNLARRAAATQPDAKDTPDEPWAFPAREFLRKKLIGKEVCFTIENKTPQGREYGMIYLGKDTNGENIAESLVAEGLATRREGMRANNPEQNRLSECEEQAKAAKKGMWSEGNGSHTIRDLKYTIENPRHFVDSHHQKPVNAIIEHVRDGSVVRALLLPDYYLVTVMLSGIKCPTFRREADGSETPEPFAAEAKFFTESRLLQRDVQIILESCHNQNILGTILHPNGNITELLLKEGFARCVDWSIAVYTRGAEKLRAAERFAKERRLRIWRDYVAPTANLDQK
# T2: MTDH (364-582) (Homo sapiens, UniProt Q86UE4)
# T2 construct: made in house; host or cells: E. coli DH5α
# T2 sequence (Q86UE4 364-582): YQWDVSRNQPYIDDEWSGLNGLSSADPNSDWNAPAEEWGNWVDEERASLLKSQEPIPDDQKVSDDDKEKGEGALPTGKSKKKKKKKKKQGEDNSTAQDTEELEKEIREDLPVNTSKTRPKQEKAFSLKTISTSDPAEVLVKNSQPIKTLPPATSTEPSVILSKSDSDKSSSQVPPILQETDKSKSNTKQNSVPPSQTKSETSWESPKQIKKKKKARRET
# T3: SND1 (Homo sapiens, UniProt Q7KZF4)
# T3 construct: Full-length HA-tagged SND1 was co-expressed with full-length Myc-tagged wild-type (WT) or mutant MTDH in HEK293T cells; expressed in transfected cells; host or cells: HEK293T
# T3 sequence (Q7KZF4 1-910): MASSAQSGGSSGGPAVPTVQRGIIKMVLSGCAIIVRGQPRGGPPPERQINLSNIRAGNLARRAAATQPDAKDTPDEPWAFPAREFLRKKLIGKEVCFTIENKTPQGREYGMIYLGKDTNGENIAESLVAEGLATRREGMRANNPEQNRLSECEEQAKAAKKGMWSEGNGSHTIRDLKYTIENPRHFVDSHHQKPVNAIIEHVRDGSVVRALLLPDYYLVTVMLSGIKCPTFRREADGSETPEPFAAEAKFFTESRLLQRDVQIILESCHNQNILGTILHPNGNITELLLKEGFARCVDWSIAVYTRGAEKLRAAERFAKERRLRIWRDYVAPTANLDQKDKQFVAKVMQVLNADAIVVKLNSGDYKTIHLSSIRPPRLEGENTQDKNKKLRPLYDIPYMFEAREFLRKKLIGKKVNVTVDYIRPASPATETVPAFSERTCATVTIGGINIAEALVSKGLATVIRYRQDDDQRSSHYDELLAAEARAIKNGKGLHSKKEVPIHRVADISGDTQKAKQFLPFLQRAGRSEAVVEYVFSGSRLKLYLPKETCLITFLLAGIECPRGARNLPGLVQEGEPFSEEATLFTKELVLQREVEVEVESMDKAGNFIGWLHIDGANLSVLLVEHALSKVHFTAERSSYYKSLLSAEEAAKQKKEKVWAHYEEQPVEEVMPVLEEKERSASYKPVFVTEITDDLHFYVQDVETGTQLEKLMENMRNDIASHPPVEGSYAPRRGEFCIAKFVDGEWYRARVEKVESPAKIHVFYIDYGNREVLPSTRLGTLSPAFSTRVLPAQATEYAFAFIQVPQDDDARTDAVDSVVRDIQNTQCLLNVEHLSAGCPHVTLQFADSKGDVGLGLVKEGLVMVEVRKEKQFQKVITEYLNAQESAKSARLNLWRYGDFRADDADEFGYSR
# B1: W394D: MTDH single point mutant W394D (protein, UniProt Q86UE4 1-582, looked up, variant W394D)
# Protein LYRIC: MAARSWQDELAQQAEEGSARLREMLSVGLGFLRTELGLDLGLEPKRYPGWVILVGTGALGLLLLFLLGYGWAAACAGARKKRRSPPRKREEAAAVPAAAPDDLALLKNLRSEEQKKKNRKKLSEKPKPNGRTVEVAEGEAVRTPQSVTAKQPPEIDKKNEKSKKNKKKSKSDAKAVQNSSRHDGKEVDEGAWETKISHREKRQQRKRDKVLTDSGSLDSTIPGIENTITVTTEQLTTASFPVGSKKNKGDSHLNVQVSNFKSGKGDSTLQVSSGLNENLTVNGGGWNEKSVKLSSQISAGEEKWNSVSPASAGKRKTEPSAWSQDTGDANTNGKDWGRSWSDRSIFSGIGSTAEPVSQSTTSDYQWDVSRNQPYIDDEWSGLNGLSSADPNSDDNAPAEEWGNWVDEERASLLKSQEPIPDDQKVSDDDKEKGEGALPTGKSKKKKKKKKKQGEDNSTAQDTEELEKEIREDLPVNTSKTRPKQEKAFSLKTISTSDPAEVLVKNSQPIKTLPPATSTEPSVILSKSDSDKSSSQVPPILQETDKSKSNTKQNSVPPSQTKSETSWESPKQIKKKKKARRET
# B2: W401D: MTDH single point mutant W401D (protein, UniProt Q86UE4 1-582, looked up, variant W401D)
# Protein LYRIC: B1 Protein LYRIC with D394W, W401D
# B3: W394A: MTDH mutant W394A (protein, UniProt Q86UE4 1-582, looked up, variant W394A)
# Protein LYRIC: B1 Protein LYRIC with D394A
# B4: W401A: MTDH mutant W401A (protein, UniProt Q86UE4 1-582, looked up, variant W401A)
# Protein LYRIC: B1 Protein LYRIC with D394W, W401A
# B5: D389R: MTDH single point mutant D389R (protein, listed as Homo sapiens)
# chain: B1 Protein LYRIC with A78S, T317A, D389R, D394W
# B6: SN1/2 domains: SND1 N-terminal SN1/2 domains, amino acids 16-339 of SEQ ID NO: 2 (protein, listed as Homo sapiens)
# chain: T1 sequence (Q7KZF4 16-339)
# Biological target: T1, SND1
# Assay: GST-mediated pull-down of SND1 by GST-tagged MTDH fragments and mutants
# Format: binding
# Details: SND1 (16-339); GST-tagged MTDH (364-582)
# Text: (§1) FIGS. 7A-E represents determination of key regions and residues mediating the MTDH-SND1 interaction. (FIG. 7A) Schematics of MTDH fragments and mutants with indicated SND1-binding capability. + indicates binding and − indicates no binding based on results shown below. Two putative nuclear localization signals are residues 432-451 for NLS2 and residues 561-580 for NLS3. In the enlarged view of the minimal binding region 386-407, 9 residues were targeted for mutagenesis in the current study. […] (FIG. 7B) Pulldown of His6-SND1AC by GST-tagged MTDH fragments with indicated boundaries. The bound proteins were examined by SDS-PAGE and visualized by Coomassie blue staining. (FIG. 7C) Pulldown of His6-SND1ΔC by GST-tagged WT or triple mutant MTDH fragments (364-582). For (FIG. 7B) and (FIG. 7C), 1/10 of the His6-SND1ΔC input was shown, and GST alone was used as a negative control. Representative results of 3 independent experiments are shown. (FIG. 7D, FIG. 7E) Lysates from HEK293T cells expressing the indicated ectopic human SND1, AGO2 or MTDH were immunoprecipitated with anti-Myc and immunoblotted with the indicated antibodies.
# (§2) (FIG. 22A) In vitro pull-down of SND1 (16-339) by GST-tagged MTDH (364-582) harboring WT or mutant sequence. The proteins bound to GS4B were examined on SDS-PAGE and visualized by Coomassie blue staining. (FIG. 22B) In vitro pull-down of WT and mutant SND1 (16-339) by GST-tagged MTDH (364-582). The bound proteins were examined as in (FIG. 22A). For both (FIG. 22A) and (FIG. 22B), experiments were repeated three times; representative results are shown. The normalized percentage of binding was averaged from three experiments; mean±SEM was shown below the data. (FIG. 22C) HEK293T cells were transfected with human HA-SND1, WT Myc-MTDH or Myc-MTDH with indicated single point mutation. Lysates were immunoprecipitated with anti-Myc antibody and immunoblotted with the indicated antibodies. (FIG. 22D) HEK293T cells were transfected with human Myc-MTDH, WT HA-SND1 or mutant HA-SND1 with indicated single point mutations or deletions. Lysates were immunoprecipitated with anti-Myc and immunoblotted with the indicated antibodies.
# (§3) GST-Mediated Pull-Down Assay: ˜20 μg of GST-MTDH (different truncation forms and site mutants) was bound to 10 μl of glutathione resin via GST tag. The resin was washed with 200 μl assay buffer (25 mM Tris, PH8.0, 150 mM NaCl, 3 mM DTT) three times to remove the excess unbound protein. 15 μg of His-SND1 (16-339) was added to the resin in a 100 μl volume suspended in the assay buffer with 2 mg/ml of BSA. The mixture was washed with 200 μl assay buffer twice before examined by SDS-PAGE, and visualized by Coomassie blue staining. The experiments were repeated 3 times and the ratio of SND1 associated with GST-MTDH was analyzed by ImageJ.
row,Molecule,"SND1-binding of MTDH (364-582) point mutants, in vitro"
1,B1,abolished or significantly reduced the interaction
2,B2,abolished or significantly reduced the interaction
3,B3,abolished or significantly reduced the interaction
4,B4,abolished or significantly reduced the interaction
5,B5,barely had any effect

# Biological target: T2, MTDH (364-582)
# Assay: GST-mediated pull-down of SND1 constructs and mutants by GST-tagged MTDH (364-582)
# Format: binding
# Details: SND1 mutants in SND1 (16-339)
# Text: as §2, §3
row,Molecule,"MTDH-binding of SND1 domains and mutants, in vitro"
1,B6,bind stoichiometrically with MTDH

# Biological target: T3, SND1
# Assay: Co-immunoprecipitation of full-length Myc-MTDH (WT or mutant) and HA-SND1 in HEK293T cells
# Format: cell-based
# Details: HEK293T cell lysates, immunoprecipitation and immunoblot
# Text: as §1, §2
# Immunoprecipitation and western blot For immunoprecipitation (IP) experiments, cultured cells were washed in cold PBS and lysed in lysis buffer (20 mM Tris pH 7.4, 0.15 M NaCl, 1 mM EDTA, 1 mM EGTA, 1% Tx-100, 0.0025 M Na2P2O7, 1 mM α-glycerolphosphate, 1 mM Na3VO4, and 1 mM NaF) with an EDTA-free protease inhibitor mixture (Roche Applied Science) and PMSF. Cell lysates were then incubated on ice for 10 min, centrifuged, and precleared by incubating with protein A/G beads (Santa Cruz Biotechnology) for 1 h at 4° C. For IP bead preparation, 30 μl of protein A/G beads were incubated with 5 μg of antibodies for 2 h at 4° C. IPs were carried out for overnight at 4° C., and beads were centrifuged, washed and subsequently boiled for 5 min in SDS protein loading buffer to elute bound protein. IP lysates were subjected to western blotting with indicated antibodies.
# Immunoprecipitation and western blot: For in vivo immunoprecipitation (IP) experiments, cultured cells were washed in cold PBS and lysed in lysis buffer (20 mM Tris pH 7.4, 0.15 M NaCl, 1 mM EDTA, 1 mM EGTA, 1% Tx-100, 0.0025 M Na2P2O7, 1 mM β-glycerolphosphate, 1 mM Na3VO4, and 1 mM NaF) with an EDTA-free protease inhibitor mixture (Roche Applied Science) and PMSF. Cell lysates were then incubated on ice for 10 min, centrifuged, and precleared by incubating with protein A/G beads (Santa Cruz Biotechnology) for 1 h at 4° C. For IP bead preparation, 30 μl of protein A/G beads were incubated with 5 μg of antibodies for 2 h at 4° C. IPs were carried out for overnight at 4° C., and beads were centrifuged, washed and subsequently boiled for 5 min in SDS protein loading buffer to elute bound protein. IP lysates were subjected to western blotting with indicated antibodies.
row,Molecule,interaction of full-length MTDH (WT or mutant) with HA-SND1
1,B1,completely and not
2,B2,partially abolished the binding; also recorded: significantly reduced the binding; also recorded: strongly reduced the binding
3,B3,not
4,B4,not
5,B5,did not affect the interaction
